Assay results from patent publication US20050080013A1 (Pfizer, published 2005).
Non-standard residues stand in square brackets, D forms with d. No end group written: not given here. *: point of attachment. Nal = naphthylalanine (isomer not specified); Dansyl = CN(C)c1cccc2c(S(=O)(=O)*)cccc12; Aib = CC(C)(N)C(=O)O

T1: lecithin:cholesterol acyltransferase (LCAT), purified from human plasma (human, UniProt P04180 25-440)
T1 sequence (looked up): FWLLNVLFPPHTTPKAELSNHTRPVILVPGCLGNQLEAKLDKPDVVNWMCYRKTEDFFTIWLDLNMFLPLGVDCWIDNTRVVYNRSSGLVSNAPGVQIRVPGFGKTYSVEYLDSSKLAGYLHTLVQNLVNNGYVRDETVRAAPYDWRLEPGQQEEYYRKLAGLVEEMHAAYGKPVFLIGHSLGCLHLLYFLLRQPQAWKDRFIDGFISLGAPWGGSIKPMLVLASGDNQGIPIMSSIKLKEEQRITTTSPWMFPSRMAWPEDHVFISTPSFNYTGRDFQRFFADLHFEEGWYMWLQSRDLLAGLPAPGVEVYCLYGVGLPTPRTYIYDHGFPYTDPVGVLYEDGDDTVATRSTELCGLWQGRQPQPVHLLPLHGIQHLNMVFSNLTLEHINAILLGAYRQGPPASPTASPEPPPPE


Target: T1, lecithin:cholesterol acyltransferase …
Assay: cell-based or functional assay

Binder | ACTIVITY (%) LCAT [%]
PVLDLFRELLWE[Aib]LEALKQKLK [peptide 50] | 21
PVLDLFRELLNEL[Nal]EALKQKLK (not fully specified) [peptide 27] | 44
PVLDLFRELLNELLEALKQKKK [peptide 56] | 18
PVLDEFRELLFE[Aib]LEALKQKLK [peptide 76] | 9
PVLDLFRNLLEKLLEALEQKLK [peptide 49] | 22
AVLDLFRELLNELLEALKQKLK [peptide 29] | 39
PVLDLWRELLNE[Aib]LEALKQKLK [peptide 41] | 25
PVLDEFREKLNEL[Aib]EALKQKLK [peptide 71] | 11
PVLDLFRELLNELLEWLKQKLK [peptide 3] | 98
VVLDLFRELLNELLEALKQKLK [peptide 53] | 19
PVLDLFRELLNELLEALKQ [peptide 60] | 16
PVLDEFRKKLNE[Aib]LEALKQKLK [peptide 69] | 13
PLLELLKELLQELLEALKQKLK [peptide 36] | 31
PVLDLFRELLNEWLEALKQKLK [peptide 54] | 19
PVLDLFREKLNELLEALKQKLK [peptide 33] | 33
PVLDLFKELLNELLEALKQKLK [peptide 7] | 83
PVLDEFRELLKE[Aib]LEALKQKLK [peptide 68] | 14
PVLDLFRELLNELWEALKQKLK [peptide 28] | 40
PVLDEFREKLNE[Aib]LEALKQKL [peptide 58] | 18

Binder | ACTIVITY (%) LCAT [%]
VLDEFREKLNE[Aib]LEALKQKLK [peptide 65] | 15
[Aib]VLDLFRELLNELLEALKQKLK [peptide 32] | 33
PWLDEFREKLNE[Aib]LEALKQKLK [peptide 64] | 15
PVLDEWREKLNE[Aib]LEALKQKLK [peptide 62] | 16
PLFRELLNELLEALKQKLK [peptide 55] | 19
PVLDFFREKLNE[Aib]LEALKQKLK [peptide 63] | 16
Dansyl-PVLDLFRELLNELLEALKQKLK [peptide 30] | 38
PVLDLFRELLNELLELLKQKLK [peptide 26] | 47
PVLDLFREKLNE[Aib]LEALKQKLK [peptide 46] | 23
LVLDLFRELLNELLEALKQKLK [peptide 59] | 17
XVLDLFRELLNELLEALKQKLKK (D-Pro (p) at 1) [peptide 5] | 90
XXLDLFRELLNELLEALKQKLK (D-Pro (p) at 1, D-Val (v) at 2) [peptide 48] | 22
PVLDLFRELLNE[Aib]LWALKQKLK [peptide 72] | 11
PVLDLFLELLNE[Aib]LEALKQKLK [peptide 31] | 34
PVLDEFREKLWE[Aib]LEALKQKLK [peptide 43] | 25
PVLDLFRELLNE[Aib]LEALKQKLK [peptide 6] | 80
PVLDLFNELLRELLEALQKKLK [peptide 40] | 25
PVLDEFRWKLNE[Aib]LEALKQKLK [peptide 61] | 16
PVLDLFWELLNE[Aib]LEALKQKLK [peptide 51] | 20

Binder | ACTIVITY (%) LCAT [%]
VLDLFRELLNEGLEALKQKLK [peptide 47] | 23
PVLDLFRELLNELLEALKQKLK [peptide 4] | 93
PVLDEFREKLNE[Aib]LEALKQKLK [peptide 45] | 24
PVLDEFWEKLNE[Aib]LEALKQKLK [peptide 73] | 10
PVLDLFREWLNELLEALKQKLK [peptide 37] | 29
VLDLFRELLNELLEALKQKLK [peptide 67] | 14
PVLDLFRNLLEELLKALEQKLK [peptide 57] | 18
PVLDEFRELLYE[Aib]LEALKQKLK [peptide 70] | 12
PVLDWFRELLNELLEALKQKLK [peptide 35] | 31
PVWDEFREKLNE[Aib]LEALKQKLK [peptide 52] | 20
PVLDLFRELLNE[Aib]LEAWKQKLK [peptide 38] | 29
PVLDEFREKLNEELEALKQKLK [peptide 75] | 10
PVLDLFRNLLEELLEALQKKLK [peptide 66] | 15
PVLDLFRELLEELLKALKKKLK [peptide 39] | 25
PVLDEFREKLNE[Aib]WEALKQKLK [peptide 42] | 25
PVLDKFREKLNE[Aib]LEALKQKLK [peptide 74] | 10
PVLD[Nal]FRELLNELLEALKQKLK (not fully specified) [peptide 34] | 32
[dP][dV][dL][dD][dE][dF][dR][dE][dK][dL][dN][dE][Aib][dL][dE][dA][dL][dK][dQ][dK][dL][dK] [peptide 44] | 25
